Measurements from the RNAGym collection of RNA variant scans (doi:10.1073/pnas.2313332121).

B1: TPR t1 (parent)
chain: GACCAAUCUGCCCUCAGAGCUCGAGAACAUCUUCGGAUGCAGAGGAGGCAGGCUUCGGUGGCGCGAUAGCGCCAACGUCCUCAACCUCCAAUGCAUCCCACCACAUGAUGAUGCCUGAAGAGCCUUGGUUUUUUG

Variants of: B1
Test: polymerase ribozyme fitness, log enrichment relative to wild type (log ratio); higher = more active; in vitro selection for triplet polymerase activity
Summary of the method: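 Input and output libraries were sequenced on Illumina after a single in vitro selection round, run in triplicate on PCR-built, transcribed mutant libraries of each subunit of a heterodimeric triplet polymerase ribozyme. Selection annealed libraries to a biotinylated primer, the partner subunit and triplets, incubated them frozen at −7 °C, then gel-excised extended constructs for streptavidin-bead capture and RT-PCR. Genotypes with ≥10 input reads and ≥1 read per output were kept. Fitness is the logarithm, taken in base 2, of genotype enrichment divided by wild-type enrichment, using inverse-variance-weighted replicate averages.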

| Variant | polymerase ribozyme fitness (log ratio) |
| --- | --- |
| C11U G69A | -2.2 |
| C11U G69C | -1.87 |
| C11U G71A | -1.53 |
| C11U G71U C123A | 1.29 |
| C11U G77U U112C | 1.4 |
| C11U G93A | -0.986 |
| C11U G113U | -2.7 |
| C11U G122A | -1.12 |
| C11U G128A | -2.45 |
| C11U U14C U38G | -4.03 |
| C11U U21A A27G A105G | -4.61 |
| C11U U21A A27G C70G A105G | -5.92 |
| C11U U33A | -4.31 |
| C11U U54A | -0.542 |
| C11U U55A C80A C86G C124G | -4.52 |
| C11U U59A A91G A118U | -1.98 |
| C11U U59C G93A | -1.49 |
| C11U U78A C97A | -5.69 |
| C11U U78C U106G | -2.03 |
| C11U U87G G113U | -4.06 |
| C11U U96G | -1.1 |
| C11U U106C | -0.678 |
| C11U U112A | 1.19 |
| C11U U112C | 1.46 |

| Variant | polymerase ribozyme fitness (log ratio) |
| --- | --- |
| C11U U129A | -2.36 |
| C12A A16U C56A | -3.74 |
| C12A A18C G77C A121U | -0.381 |
| C12A A18C U112C C124U | -0.619 |
| C12A A18G C40U | -4.84 |
| C12A A24C C97U | -7.95 |
| C12A A24G A41C A43C A46G C53G | -4.67 |
| C12A A26G A121C | -1.17 |
| C12A A26U A41C C82A A95G C101A G120A G127A | -5.86 |
| C12A A26U G36A G48C C72U | -4.02 |
| C12A A26U G61A U131G | -4.35 |
| C12A A27G C34G G61U A118C C123G | -8.42 |
| C12A A29U C86A | -2.52 |
| C12A A37C | -1.93 |
| C12A A37G U132A | -1.37 |
| C12A A37U A105G G122A | -3.74 |
| C12A A41C C72U U92G A111G | -1.91 |
| C12A A41U A43U C104U U129G | -4.67 |
| C12A A46U C49U A95G C99U A111G U116A | -6.56 |
| C12A A46U C72G C114U | -4.57 |
| C12A A46U C114U | -3.89 |
| C12A A46U G47C C124G | -0.295 |
| C12A A50C C53U A74C | -0.606 |
| C12A A68G A84C | -4.19 |

| Variant | polymerase ribozyme fitness (log ratio) |
| --- | --- |
| C12A A75U A111C | 0.286 |
| C12A A100C A121C | 1.43 |
| C12A C13A U55A G63U U131A | -2.53 |
| C12A C15A | -3.39 |
| C12A C15A A43G A50U G61U | -6.06 |
| C12A C15A C70A C72A G110U | -6.17 |
| C12A C15G C101U | -3.16 |
| C12A C15U G52U G63A C86U G117C | -5.35 |
| C12A C15U G69A G93U U109G | -6.39 |
| C12A C15U G71U A121C G127U | 0.118 |
| C12A C20A G63A U87A G122U | -4.81 |
| C12A C20A G63C G113U C115U U131A | -3.61 |
| C12A C20A G113U C115U U131A | -3.38 |
| C12A C20G A83G C85U A95G | -5.21 |
| C12A C22A A26C G120U | -4.36 |
| C12A C22A C40U G58C C86A U112G | -5.73 |
| C12A C22G A27U | -4.16 |
| C12A C22U U78C A121U | -2.5 |
| C12A C28U C86U C88U C101A A111C | -7.09 |
| C12A C34G G122U | -5.34 |
| C12A C40A | -2.34 |
| C12A C40G C104U G128U | -3.15 |
| C12A C40U A91C | -3.09 |
| C12A C40U A111C U131A | -0.623 |

| Variant | polymerase ribozyme fitness (log ratio) |
| --- | --- |
| C12A C40U C82G U96C C97U | -6.18 |
| C12A C40U U87G | -1.56 |
| C12A C49A C82A | -1.3 |
| C12A C49U G69U U109A U116A C123G | -5.67 |
| C12A C53U | -0.724 |
| C12A C53U C73A | -0.585 |
| C12A C53U U78A U81G | -2.32 |
| C12A C56A C115U G120A C123A | -1.84 |
| C12A C62A | -1.05 |
| C12A C62A C98A | -6.54 |
| C12A C62G U133G | -1.75 |
| C12A C62U G128U | -3.03 |
| C12A C64U A90C | -2.08 |
| C12A C64U U133G | -0.934 |
| C12A C70A U92A | -5.67 |
| C12A C70G | -2.78 |
| C12A C70G C89A G110A U129A | -6.66 |
| C12A C70U | -0.454 |
| C12A C72A | 0.329 |
| C12A C72A C99A G120U G128U | -7.62 |
| C12A C73A | 1.15 |
| C12A C79A A111G | -2.24 |
| C12A C82A | -0.699 |
| C12A C86A | -0.926 |

| Variant | polymerase ribozyme fitness (log ratio) |
| --- | --- |
| C12A C88U G110C | -4.61 |
| C12A C88U U109A C114A U133C | -6.51 |
| C12A C89U C101A A111U | -5.17 |
| C12A C99U | -3.06 |
| C12A C123A | 0.369 |
| C12A G17A A111U U116C | -6.09 |
| C12A G17C G48C | -6.47 |
| C12A G17U A46G C80G A84G C115A | -4.53 |
| C12A G17U C20A G42A G45U A90G C123A | -4.53 |
| C12A G17U U96A G120U | -1.6 |
| C12A G19C C85U A91U G122U | -3.66 |
| C12A G19U G42U C70A U92A U112C U129G | -5.98 |
| C12A G19U G57U | -3.2 |
| C12A G36C | -1.69 |
| C12A G36U | -1.6 |
| C12A G42C C73A C80U A118G | -3.44 |
| C12A G44A A46G G48U | -3.1 |
| C12A G44A C72G A100U | -2.22 |
| C12A G45U C56U G93A | -2.57 |
| C12A G45U G51C G52U U59C C123G | -5.71 |
| C12A G47A C72G G93A | -4.15 |
| C12A G48A U55C G57U U59G C85U | -3.61 |
| C12A G51U G71U U133C | -4.34 |
| C12A G52A C73U A91G | -2.04 |

| Variant | polymerase ribozyme fitness (log ratio) |
| --- | --- |
| C12A G57A G69C U106C | -2.99 |
| C12A G57U C72U | -0.582 |
| C12A G57U G71U | -0.629 |
| C12A G58A G61C C79U C82A A83C C114U | -5.31 |
| C12A G60C U106G | -2.28 |
| C12A G61C | -2.46 |
| C12A G63C A111U | -4.83 |
| C12A G63U C70G C89A A90U A100U A121G | -1.48 |
| C12A G69A A100C A121C | -3.75 |
| C12A G69C | -2.39 |
| C12A G71U | -0.821 |
| C12A G71U G117C U126C | -6.35 |
| C12A G110A | -1.57 |
| C12A G110A C123U | -1.84 |
| C12A G113A | -2.14 |
| C12A G117C A121C U132A | -5.13 |
| C12A G117U | -1.72 |
| C12A G120U | 1.57 |
| C12A G122A | -0.788 |
| C12A G127U | -1.39 |
| C12A G128C | -2.18 |
| C12A G128U | -2.12 |
| C12A U14G G17A C20A C94A | -3.13 |
| C12A U54A C80G | -4.17 |

| Variant | polymerase ribozyme fitness (log ratio) |
| --- | --- |
| C12A U87A C89G C94A G113A | -6.04 |
| C12A U92A | -3.47 |
| C12A U112C | 0.835 |
| C12A U130C | -1.06 |
| C12A U133A | -0.907 |
| C12G A26C A27C G36U C97A C101U U109A | -7.51 |
| C12G A26U C34U G42U G44U C62G U96C U106A U109A C115G | -6.33 |
| C12G A26U C114A | -6.59 |
| C12G A26U G77A | -2.58 |
| C12G A27C | -2.38 |
| C12G A27C C104U G113U G120A G122A U130A | -6.9 |
| C12G A27G G39C | -3.18 |
| C12G A37C G60C A83U A91C G120U | -0.68 |
| C12G A41C | -0.0245 |
| C12G A41U G44C C64U C82G G113U | -5.32 |
| C12G A43U | -0.979 |
| C12G A43U A75U C124G | 0.348 |
| C12G A43U U92G C104A G117U A118U | -5.1 |
| C12G A46C C53A C104A C123U | -1.14 |
| C12G A46C G60U U109C | -6.49 |
| C12G A46G G48A C79A | -2.27 |
| C12G A46U C82G | -1.75 |
| C12G A46U C102A | -2.85 |
